Assay results: the Human Domainome abundance scans (Beltran et al. 2025)
± gives the uncertainty stated by the source.

B1: Ras GTPase-activating protein 1, residues 281 to 341; numbered along this chain, P20936 (parent)
chain: RRRVRAILPYTKVPDTDEISFLKGDMFIVHNELEDGWMWVTNLRTDEQGLIVEDLVEEVGR

Variants of: B1
Assay: abundance fitness (aPCA) (normalised: wild type 0, dead -1); higher = more abundant; growth selection in yeast, the domain comes from the species named
Settings: Homo sapiens

Row | Variant | abundance fitness
1 | T41N | -0.576 ± 0.033
2 | T41R | -0.102 ± 0.03
3 | T41I | -0.594 ± 0.038
4 | T41P | -0.973 ± 0.096
5 | D35I | -0.487 ± 0.037
6 | D35Y | -0.268 ± 0.029
7 | D35M | -0.142 ± 0.069
8 | D35S | -0.103 ± 0.026
9 | D35W | -0.337 ± 0.054
10 | D35T | -0.098 ± 0.034
11 | T16P | -0.911 ± 0.074
12 | T16D | -1.01 ± 0.068
13 | T16L | -0.973 ± 0.056
14 | T16Q | -1.03 ± 0.21
15 | T16C | -0.38 ± 0.027
16 | T16G | -0.439 ± 0.027
17 | T16M | -0.87 ± 0.12
18 | T16N | -0.605 ± 0.037
19 | T16Y | -0.942 ± 0.06
20 | T16F | -0.752 ± 0.04
21 | T16I | -0.879 ± 0.059
22 | T16R | -0.456 ± 0.029
23 | L8H | -0.037 ± 0.032
24 | L8D | -0.149 ± 0.033

Row | Variant | abundance fitness
25 | L8W | -0.194 ± 0.043
26 | L8M | 0.044 ± 0.044
27 | L8S | -0.03 ± 0.025
28 | L8N | -0.102 ± 0.028
29 | L8F | -0.075 ± 0.027
30 | L8Q | -0.052 ± 0.058
31 | L8Y | -0.084 ± 0.026
32 | Q48F | -0.122 ± 0.026
33 | Q48R | -0.051 ± 0.03
34 | Q48G | -0.375 ± 0.033
35 | Q48M | -0.107 ± 0.057
36 | Q48D | -0.038 ± 0.031
37 | Q48K | 0.015 ± 0.054
38 | Q48T | 0.019 ± 0.031
39 | Q48Y | -0.08 ± 0.027
40 | Q48E | -0.06 ± 0.063
41 | E32W | -0.103 ± 0.049
42 | E32F | -0.054 ± 0.031
43 | E32A | -0.068 ± 0.029
44 | E32T | 0.003 ± 0.031
45 | G24H | -0.201 ± 0.033
46 | G24P | -1.04 ± 0.11
47 | G24Q | -0.628 ± 0.11
48 | G24E | -0.371 ± 0.052

Row | Variant | abundance fitness
49 | R61L | 0.039 ± 0.037
50 | R61P | 0.104 ± 0.046
51 | R61D | 0.039 ± 0.04
52 | R61F | 0.021 ± 0.043
53 | R61Q | 0.044 ± 0.083
54 | R61M | -0.031 ± 0.065
55 | W39H | -0.204 ± 0.024
56 | W39M | -0.094 ± 0.03
57 | W39Q | -0.079 ± 0.046
58 | W39N | -0.134 ± 0.022
59 | V13R | 0.071 ± 0.03
60 | V13F | -0.185 ± 0.027
61 | V13Q | 0.025 ± 0.046
62 | V13L | -0.053 ± 0.029
63 | V13I | -0.019 ± 0.029
64 | V13T | 0.084 ± 0.03
65 | A6N | -0.908 ± 0.032
66 | A6I | -0.885 ± 0.031
67 | A6H | -0.925 ± 0.034
68 | A6F | -0.919 ± 0.03
69 | P14F | -0.348 ± 0.031
70 | P14L | -0.188 ± 0.032
71 | P14C | -0.142 ± 0.026
72 | P14T | -0.076 ± 0.034

Row | Variant | abundance fitness
73 | P14A | -0.027 ± 0.03
74 | P14R | -0.132 ± 0.03
75 | P14G | -0.089 ± 0.025
76 | P14I | -0.124 ± 0.029
77 | P14E | -0.06 ± 0.066
78 | K12R | -0.052 ± 0.033
79 | K12V | -0.788 ± 0.047
80 | K12E | -0.218 ± 0.11
81 | K12Y | -0.824 ± 0.044
82 | K12P | -0.102 ± 0.037
83 | V56K | -0.741 ± 0.1
84 | V56I | -0.031 ± 0.028
85 | V56A | -0.421 ± 0.035
86 | V56H | -0.93 ± 0.069
87 | V56E | -1.07 ± 0.15
88 | V56Y | -0.982 ± 0.062
89 | V56D | -0.887 ± 0.052
90 | V56C | -0.126 ± 0.028
91 | R2G | -0.241 ± 0.028
92 | R2E | 0.007 ± 0.084
93 | R2L | -0.187 ± 0.031
94 | R2N | -0.099 ± 0.028
95 | R2C | -0.347 ± 0.03
96 | R2Q | -0.172 ± 0.065

Row | Variant | abundance fitness
97 | R2Y | -0.103 ± 0.034
98 | R2M | -0.053 ± 0.055
99 | D25I | -0.946 ± 0.059
100 | D25S | -0.874 ± 0.042
101 | D25F | -0.822 ± 0.047
102 | H30K | -0.151 ± 0.065
103 | H30G | -0.444 ± 0.028
104 | H30N | -0.135 ± 0.028
105 | H30Y | -0.397 ± 0.034
106 | H30W | -0.153 ± 0.045
107 | H30S | -0.318 ± 0.026
108 | H30T | -0.261 ± 0.037
109 | H30Q | -0.033 ± 0.056
110 | H30L | -0.085 ± 0.03
111 | I7L | -0.066 ± 0.03
112 | I7M | -0.167 ± 0.065
113 | I7A | -0.63 ± 0.054
114 | I28W | -0.136 ± 0.03
115 | I28V | -0.016 ± 0.021
116 | I28K | -0.07 ± 0.033
117 | I28P | -0.85 ± 0.04
118 | R5L | -0.256 ± 0.031
119 | R5C | -0.072 ± 0.03
120 | R5P | -0.919 ± 0.074

Row | Variant | abundance fitness
121 | R5V | -0.007 ± 0.027
122 | R5D | -0.86 ± 0.067
123 | E34M | -0.159 ± 0.089
124 | E34Q | 0.074 ± 0.073
125 | E34D | -0.033 ± 0.034
126 | E34W | -0.28 ± 0.066
127 | E34S | -0.01 ± 0.028
128 | E34V | -0.089 ± 0.03
129 | E34G | -0.035 ± 0.03
130 | D54S | 0.058 ± 0.029
131 | D54T | 0.016 ± 0.051
132 | D54R | 0.133 ± 0.036
133 | D54K | 0.037 ± 0.073
134 | V40H | -0.858 ± 0.063
135 | V40F | -0.881 ± 0.045
136 | E47A | -0.254 ± 0.031
137 | E47L | -0.417 ± 0.03
138 | E47D | -0.104 ± 0.028
139 | E47T | -0.263 ± 0.031
140 | E47P | -0.993 ± 0.09
141 | E47S | -0.348 ± 0.026
142 | E47Y | -0.77 ± 0.038
143 | E47N | -0.428 ± 0.032
144 | Y10F | -0.577 ± 0.042

Row | Variant | abundance fitness
145 | Y10R | -0.27 ± 0.045
146 | Y10C | -0.539 ± 0.05
147 | Y10T | -0.999 ± 0.098
148 | K23Q | -0.061 ± 0.043
149 | K23R | -0.094 ± 0.022
150 | K23Y | -0.269 ± 0.023
151 | K23H | -0.313 ± 0.031
152 | K23P | -0.048 ± 0.034
153 | K23S | -0.102 ± 0.02
154 | G49L | -0.847 ± 0.049
155 | G49P | -0.846 ± 0.067
156 | G49S | -0.979 ± 0.051
157 | G49D | -0.836 ± 0.05
158 | G49W | -1.09 ± 0.18
159 | G49N | -0.836 ± 0.043
160 | G49R | -1.04 ± 0.079
161 | G49Y | -0.936 ± 0.056
162 | G60Y | -0.058 ± 0.1
163 | G60M | -0.289 ± 0.12
164 | G60E | 0.003 ± 0.25
165 | G60I | -0.299 ± 0.11
166 | G60L | -0.227 ± 0.12
167 | G60N | -0.006 ± 0.065
